B1: GFP‐LUZP1 (natural protein, mouse, UniProt Q8R4U7 1-1068, looked up)
chain: MAELTNYKDAASNRHLRFKLQSLSRRLDELEEATKNLQRAEDELLDLQDKVIQAEGSDSSTLAEIEVLRQRVLKIEGKDEEIKRAEDLCHTMKEKLEEEENLTRELKSEIERLQKRMVDLEKLEEALSRSKNECSQLCLSLNEERNLTKKISSELEMLRVKVKELESSEDRLDKTEQSLVSELEKLKSLTLSFVNERKYLNEKEKENEKIIKELTQKLEQNKKMNRDHMRNASTFLERNDLRIEDGISSTLSSKESKRKGSLDYLKQVENETRDKSENEKNRNQEDNKVKDLNQEIEKLKTQIKHFESLEEELKKMRAKNNDLQDNYLTELNRNRSLASQLEEIKLQVRKQKELGNGDIEGEDAFLLGRGRHERTKLKGHGSEASVSKHTSRELSPQHKRERLRNREFALSNEHYSLSSKQASSPVFTNKRAAKASNMGMGTDSGTQETKRTEDRFAPGSSHSEGKRGREQPSVLSRYPPAAQEHTKVWKGAPKPGTESGLKGKVEKTTRTFSDSTHVSVPNDIVGKGDKTSDLSSEAHCGKRGQVPGHASQGTQAVESSCSKAIGALSSSQKASSEGLSKGKKTANGLAADANFSNSKAPILSKYPYSSRSQENILQGFSLPNKEGVDQPVAVVMEDSSQHEALRCRVIKSSGREKPDSDDDLDIESFVTAKLVNTTITPEPEPKPQPNSREKVKSRGGTRTALFENDKNAAIENDSVKPTRPSSNAIEFPDANCAGVKNQRPFSPREALRSRAIIKPVIIDKDVKKIMGGSGTEVVLEKQKSTSKSVTSKVTSSITIYPSDSSGPRAVPSEAPRERHTSTSNIQVGPPELTAISNHVSSPLELSIHKHDITLQLTEAERVGDGSPKNRAEMVVSRSSILIKPSESVEKNSHVPPAETIRWKSHSASSDSRHITVRNAWKSKRDLKCSEDPPTGIGRNMEATNAYTQRPCTDFLELEQPRSQPSEQGARRVGNSGDAPELSPRRTQSSLTASEVLTRRDRMGGAITAASCNHSSSMEEGEDSTFVTSRRIHNPLEHSELPGKQGLPEPEPVWTEERLHPAKPYAEED

Tests used:
[1] = target: Flag‐LUZP1 (mouse) (UniProt Q8R4U7); test: pull-down; in vitro direct binding assay: Flag‐LUZP1 on anti‐Flag M2 affinity gel beads, GST‐MLC 0–8.0 μM in HBS, RT 60 min; washed in 300 mM NaCl, 50 mM Tris–HCl pH 7.5, 1 mM EDTA, 1 mM DTT; immunoblot densitometry, Michaelis–Menten fit
[2] = target: HA‐PP1c β/δ (UniProt P62141 1-327); test: cell-based or functional assay
[3] = target: Taxol‐stabilized microtubules (tubulin, Cytoskeleton Inc. #T240) (UniProt P02550); test: co-sedimentation; MT co‐sedimentation: Flag‐LUZP1 (10 μl of 7.7 nM in 20 μl) with 0–6 μM polymerized tubulin, GTP and Taxol, PME buffer/HBS, RT 60 min; 434,513 g, 25°C, 20 min; immunoblot densitometry, Michaelis–Menten fit

Row | Molecule | Kd [1] [nM] | in vitro MLC phosphorylation assay with 1 μg MTs added (25 ng GST‐MLC, 4 ng GST‐ROCK1 catalytic domain, 1 μg GST‐PP1c β/δ, 0–5 μg GST‐LUZP1): ppMLC/MLC ratio relative to the control [2] | in vitro Merlin phosphorylation assay with 1 μg MTs added (100 ng GST‐Merlin, 2 pg PAK1, 1 μg GST‐PP1c β/δ, 0–5 μg GST‐LUZP1): pMerlin/Merlin ratio relative to the control [2] | Kd [3] [nM]
1 | GST‐tagged di‐dephosphomimetic myosin light chain (T18A, S19A) (natural protein) | 4880 |  |  | 
2 | GST‐tagged di‐phosphomimetic myosin light chain (T18D, S19D) (natural protein) | 850 |  |  | 
3 | GST‐tagged wild‐type myosin light chain (from UniProt Q3THE2 1-172) (natural protein) | 4040 |  |  | 
4 | B1 |  | 2.87 ratio relative to the control | 8.32 ratio relative to the control | 780

From publication PMC7809799, “A microtubule‐LUZP1 association around tight junction promotes epithelial cell apical constriction” (The EMBO Journal, 2020)
